Ends that are not written are not given here.
B2: Asyn Med peptide (GKNEEGAPQEGI) of alpha‐synuclein, carboxyfluorescein-labeled (peptide)
peptide: GKNEEGAPQEGI
modifications: also: 5(6)-carboxyfluorescein label, site not given here
B3: Asyn top peptide (YEMPSEEGYQDY) of alpha‐synuclein, carboxyfluorescein-labeled (peptide)
peptide: YEMPSEEGYQDY
modifications: also: 5(6)-carboxyfluorescein label, site not given here
B4: Asyn worst peptide (MDVFMKGLSKAK) of alpha‐synuclein, carboxyfluorescein-labeled (peptide)
peptide: MDVFMKGLSKAK
modifications: also: 5(6)-carboxyfluorescein label, site not given here

Experiments:
Test in all cases: MST
[1] = target: amyloid beta peptide (strongest wild‐type SERF2 binding peptide from amyloid beta), carboxyfluorescein-labeled (human)
wild‐type SERF2 = target: T1, wild‐type SERF2 (human, UniProt P84101-1 1-59)
T1 sequence: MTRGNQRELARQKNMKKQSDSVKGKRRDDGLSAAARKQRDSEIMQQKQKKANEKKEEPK

[2] = target: B3
[3] = target: B2
[4] = target: B4

B1: wild‐type SERF2 (natural protein)
chain: MTRGNQRELARQKNMKKQSDSVKGKRRDDGLSAAARKQRDSEIMQQKQKKANEKKEEPK
Kd [1]: 9.6 µM

B2
binding result (wild‐type SERF2): binds

B3
Kd (wild‐type SERF2): 3 µM

B4
binding result (wild‐type SERF2): binds

B5: SERF2 KR mutant (natural protein)
chain: MTRGNQRELARQKNMRRQSDSVRGKRRDDGLSAAARKQRDSEIMQQKQKKANEKKEEPK
Kd [1]: 6.6 µM | Kd [2]: 2.6 µM | binding result [3]: binds | binding result [4]: binds

Reference: paper PMC8561633 (The EMBO Journal, 2021)
